Measured values: IntAct's records for PubMed 31515488

B1: NAD kinase (Homo sapiens), O95544 (parent)
chain: MEMEQEKMTMNKELSPDAAAYCCSACHGDETWSYNHPIRGRAKSRSLSASPALGSTKEFRRTRSLHGPCPVTTFGPKACVLQNPQTIMHIQDPASQRLTWNKSPKSVLVIKKMRDASLLQPFKELCTHLMEENMIVYVEKKVLEDPAIASDESFGAVKKKFCTFREDYDDISNQIDFIICLGGDGTLLYASSLFQGSVPPVMAFHLGSLGFLTPFSFENFQSQVTQVIEGNAAVVLRSRLKVRVVKELRGKKTAVHNGLGENGSQAAGLDMDVGKQAMQYQVLNEVVIDRGPSSYLSNVDVYLDGHLITTVQGDGVIVSTPTGSTAYAAAAGASMIHPNVPAIMITPICPHSLSFRPIVVPAGVELKIMLSPEARNTAWVSFDGRKRQEIRHGDSISITTSCYPLPSICVRDPVSDWFESLAQCLHWNVRKKQAHFEEEEEEEEEG
B2: GRIP and coiled-coil domain-containing protein 1 (Homo sapiens), Q96CN9 (parent)
chain: MEKFGMNFGGGPSKKDLLETIETQKKQLLQYQARLKDVVRAYKSLLKEKEALEASIKVLSVSHEADVGLAGVQLPGLTFPDSVDDRCSTHSEDSTGTATSLDTAASLTSTKGEFGVEDDRPARGPPPPKSEEASWSESGVSSSSGDGPFAGGEVDKRLHQLKTQLATLTSSLATVTQEKSRMEASYLADKKKMKQDLEDASNKAEEERARLEGELKGLQEQIAETKARLITQQHDRAQEQSDHALMLRELQKLLQEERTQRQDLELRLEETREALAGRAYAAEQMEGFELQTKQLTREVEELKSELQAIRDEKNQPDPRLQELQEEAARLKSHFQAQLQQEMRKTALAEDQLRQQSQVEEQRVAALENQISEVSELLGTYEKAKQKDQLAIQKLKERILQLDLENKTLALAASSRSPLDSHGEESSLDVNVLKDKMEKLKRLLQVAARKSQVTLDVEKLCDLEIMPSSEAADGEKATALYYQQELKQLKEEFERYKMRAQVVLKSKNTKDGNLGKELEAAQEQLAELKEKYISLRLSCEELEHQHQQEADDWKQELARLQQLHRQELERCQLDFRDRTLKLEEELHKQRDRALAVLTEKDLELEQLRSVALASGLPGRRSPVGGGGPGDPADTSSSDSLTQALQLAAANEPTFFLYAEQLARKEVEITSLRKQKHRLEVEVHQLQDRLLEEGERHREEVAALQSHIEKNIRDQSREGANLEYLKNIIYRFLTLPDSLGRQQTLTAILTILHFSPEEKQVIMRLPTSASWWPSGKR
B3: Notch homolog 2 N-terminal-like protein A (Homo sapiens), Q7Z3S9 (parent)
chain: MCVTYHNGTGYCKCPEGFLGEYCQHRDPCEKNRCQNGGTCVAQAMLGKATCRCASGFTGEDCQYSTSHPCFVSRPCLNGGTCHMLSRDTYECTCQVGFTGKECQWTDACLSHPCANGSTCTTVANQFSCKCLTGFTGQKCETDVNECDIPGHCQHGGTCLNLPGSYQCQCLQGFTGQYCDSLYVPCAPSPCVNGGTCRQTGDFTFECNCLPETVRRGTELWERDREVWNGKEHDEN
partner: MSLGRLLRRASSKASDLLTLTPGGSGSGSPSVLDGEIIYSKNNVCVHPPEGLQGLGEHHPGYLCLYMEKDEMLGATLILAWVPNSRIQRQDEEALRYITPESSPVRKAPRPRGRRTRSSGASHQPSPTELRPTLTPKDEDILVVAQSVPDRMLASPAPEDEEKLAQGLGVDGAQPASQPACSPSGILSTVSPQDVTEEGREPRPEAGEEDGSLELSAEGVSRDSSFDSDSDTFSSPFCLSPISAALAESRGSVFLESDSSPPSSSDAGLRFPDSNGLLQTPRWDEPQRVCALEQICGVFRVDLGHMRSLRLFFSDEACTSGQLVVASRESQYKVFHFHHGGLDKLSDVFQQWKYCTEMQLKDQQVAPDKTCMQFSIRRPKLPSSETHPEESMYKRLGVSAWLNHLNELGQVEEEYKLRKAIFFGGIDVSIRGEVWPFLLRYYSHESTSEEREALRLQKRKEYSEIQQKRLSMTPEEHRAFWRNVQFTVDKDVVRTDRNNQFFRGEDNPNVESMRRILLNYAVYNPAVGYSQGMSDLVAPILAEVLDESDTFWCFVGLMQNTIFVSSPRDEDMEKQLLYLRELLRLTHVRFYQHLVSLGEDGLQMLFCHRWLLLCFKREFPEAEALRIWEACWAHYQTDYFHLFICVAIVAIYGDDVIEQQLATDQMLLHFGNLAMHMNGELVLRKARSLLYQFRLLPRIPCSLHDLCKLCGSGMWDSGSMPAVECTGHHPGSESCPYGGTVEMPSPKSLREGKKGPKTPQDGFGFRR
B4: Nucleoporin p58/p45 (Homo sapiens), Q9BVL2 (parent)
chain: MSTGFSFGSGTLGSTTVAAGGTSTGGVFSFGTGASSNPSVGLNFGNLGSTSTPATTSAPSSGFGTGLFGSKPATGFTLGGTNTGIATTITTGLTLGTPATTSAATTGFSLGFNKPAASATPFALPITSTSASGLTLSSALTSTPAASTGFTLNNLGGTTATTTTASTGLSLGGALAGLGGSLFQSTNTGTSGLGQNALGLTLGTTAATSTAGNEGLGGIDFSSSSDKKSDKTGTRPEDSKALKDENLPPVICQDVENLQKFVKEQKQVQEEISRMSSKAMLKVQEDIKALKQLLSLAANGIQRNTLNIDKLKIETAQELKNAEIALRTQKTPPGLQHEYAAPADYFRILVQQFEVQLQQYRQQIEELENHLATQANNSHITPQDLSMAMQKIYQTFVALAAQLQSIHENVKVLKEQYLGYRKMFLGDAVDVFETRRAEAKKWQNTPRVTTGPTPFSTMPNAAAVAMAATLTQQQQPATGPQPSLGVSFGTPFGSGIGTGLQSSGLGSSNLGGFGTSSGFGCSTTGASTFGFGTTNKPSGSLSAGFGSSSTSGFNFSNPGITASAGLTFGVSNPASAGFGTGGQLLQLKKPPAGNKRGKR
B5: Microtubule-associated tumor suppressor candidate 2 (Homo sapiens), Q5JR59-3 (parent)
chain: MGHCCCKPYNCLQCLDKTNESALVKEKELSIELANIRDEVAFHTAKCEKLQKEKEELERRFEDEVKRLGWQQQAELQELEERLQLQFEAEMARLQEEHGDQLLSIRCQHQEQVEDLTASHDAALLEMENNHTVAITILQDDHDHKVQELMSTHELEKKELEENFEKLRLSLQDQVDTLTFQSQSLRDRARRFEEALRKNTEEQLEIALAPYQHLEEDMKSLKQVLEMKNQQIHEQEKKILELEKLAEKNIILEEKIQVLQQQNEDLKARIDQNTVVTRQLSEENANLQEYVEKETQEKKRLSRTNEELLWKLQTGDPTSPIKLSPTSPVYRGSSSGPSSPARVSTTPR
B6: STAM-binding protein (Homo sapiens), O95630 (parent)
chain: MSDHGDVSLPPEDRVRALSQLGSAVEVNEDIPPRRYFRSGVEIIRMASIYSEEGNIEHAFILYNKYITLFIEKLPKHRDYKSAVIPEKKDTVKKLKEIAFPKAEELKAELLKRYTKEYTEYNEEKKKEAEELARNMAIQQELEKEKQRVAQQKQQQLEQEQFHAFEEMIRNQELEKERLKIVQEFGKVDPGLGGPLVPDLEKPSLDVFPTLTVSSIQPSDCHTTVRPAKPPVVDRSLKPGALSNSESIPTIDGLRHVVVPGRLCPQFLQLASANTARGVETCGILCGKLMRNEFTITHVLIPKQSAGSDYCNTENEEELFLIQDQQGLITLGWIHTHPTQTAFLSSVDLHTHCSYQMMLPESVAIVCSPKFQETGFFKLTDHGLEEISSCRQKGFHPHSKDPPLFCSCSHVTVVDRAVTITDLR
partner: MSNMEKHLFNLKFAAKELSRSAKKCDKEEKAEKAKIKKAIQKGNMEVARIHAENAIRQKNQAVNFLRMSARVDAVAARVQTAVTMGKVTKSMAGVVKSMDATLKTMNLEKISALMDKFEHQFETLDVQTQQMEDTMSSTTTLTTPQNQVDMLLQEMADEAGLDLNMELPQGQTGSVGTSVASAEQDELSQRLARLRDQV
B7: mRNA-decapping enzyme 1A (Homo sapiens), Q9NPI6 (parent)
chain: MEALSRAGQEMSLAALKQHDPYITSIADLTGQVALYTFCPKANQWEKTDIEGTLFVYRRSASPYHGFTIVNRLNMHNLVEPVNKDLEFQLHEPFLLYRNASLSIYSIWFYDKNDCHRIAKLMADVVEEETRRSQQAARDKQSPSQANGCSDHRPIDILEMLSRAKDEYERNQMGDSNISSPGLQPSTQLSNLGSTETLEEMPSGSQDKSAPSGHKHLTVEELFGTSLPKEQPAVVGLDSEEMERLPGDASQKEPNSFLPFPFEQLGGAPQSETLGVPSAAHHSVQPEITTPVLITPASITQSNEKHAPTYTIPLSPVLSPTLPAEAPTAQVPPSLPRNSTMMQAVKTTPRQRSPLLNQPVPELSHASLIANQSPFRAPLNVTNTAGTSLPSVDLLQKLRLTPQHDQIQTQPLGKGAMVASFSPAAGQLATPESFIEPPSKTAAARVAASASLSNMVLAPLQSMQQNQDPEVFVQPKVLSSAIPVAGAPLVTATTTAVSSVLLAPSVFQQTVTRSSDLERKASSPSPLTIGTPESQRKPSIILSKSQLQDTLIHLIKNDSSFLSTLHEVYLQVLTKNKDNHNL
partner: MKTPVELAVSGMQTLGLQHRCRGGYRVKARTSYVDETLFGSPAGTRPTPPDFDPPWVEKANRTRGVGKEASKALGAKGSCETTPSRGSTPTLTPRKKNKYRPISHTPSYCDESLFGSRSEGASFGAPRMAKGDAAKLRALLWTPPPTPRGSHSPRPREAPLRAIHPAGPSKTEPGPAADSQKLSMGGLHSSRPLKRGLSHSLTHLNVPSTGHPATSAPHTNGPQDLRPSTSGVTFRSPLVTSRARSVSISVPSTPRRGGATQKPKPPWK
B8: Tektin-3 (Homo sapiens), Q9BXF9 (parent)
chain: MERVGCTLTTTYAHPRPTPTNFLPAISTMASSYRDRFPHSNLTHSLSLPWRPSTYYKVASNSPSVAPYCTRSQRVSENTMLPFVSNRTTFFTRYTPDDWYRSNLTNYQESNTSRHNSEKLRVDTSRLIQDKYQQTRKTQADTTQNLGERVNDIGFWKSEIIHELDEMIGETNALTDVKKRLERALMETEAPLQVARECLFHREKRMGIDLVHDEVEAQLLTEVDTILCCQERMKLHLDKAIAQLAANRASQHELEKDLSDKQTAYRIDDKCHHLRNTSDGVGYFRGVERVDATVSVPESWAKFTDDNILRSQSERAASAKLRDDIENLLVVTANEMWNQFNKVNLSFTNRIAETADAKNKIQTHLAKTLQEIFQTEMTIESIKKAIKDKTAFLKVAQTRLDERTRRPNIELCRDMAQLRLVNEVHEVDDTIQTLQQRLRDAEDTLQSLVHIKATLEYDLAVKANSLYIDQEKCMSMRKSYPNTLRLVGFC
partner: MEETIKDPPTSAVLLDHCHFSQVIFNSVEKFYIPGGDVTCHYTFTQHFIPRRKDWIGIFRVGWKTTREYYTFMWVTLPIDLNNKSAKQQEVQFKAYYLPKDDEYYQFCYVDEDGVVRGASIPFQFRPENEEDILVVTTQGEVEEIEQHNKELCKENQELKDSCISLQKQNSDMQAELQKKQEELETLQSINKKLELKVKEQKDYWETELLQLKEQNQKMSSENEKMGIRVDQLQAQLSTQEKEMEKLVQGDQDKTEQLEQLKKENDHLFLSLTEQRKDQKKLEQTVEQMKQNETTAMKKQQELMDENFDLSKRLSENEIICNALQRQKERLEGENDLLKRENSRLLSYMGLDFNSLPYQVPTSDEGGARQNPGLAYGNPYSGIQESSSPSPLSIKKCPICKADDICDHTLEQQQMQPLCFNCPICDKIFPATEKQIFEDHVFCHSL

Variants of: B1
Details: with sdcb1_human SDCBP

effect of a mutation on the interaction | Variant
with no effect | R249W

Variants of: B2
Details: with mcrs1_human MCRS1, Q96EZ8
mcrs1_human MCRS1, Q96EZ8, sequence (Q96EZ8 whole entry): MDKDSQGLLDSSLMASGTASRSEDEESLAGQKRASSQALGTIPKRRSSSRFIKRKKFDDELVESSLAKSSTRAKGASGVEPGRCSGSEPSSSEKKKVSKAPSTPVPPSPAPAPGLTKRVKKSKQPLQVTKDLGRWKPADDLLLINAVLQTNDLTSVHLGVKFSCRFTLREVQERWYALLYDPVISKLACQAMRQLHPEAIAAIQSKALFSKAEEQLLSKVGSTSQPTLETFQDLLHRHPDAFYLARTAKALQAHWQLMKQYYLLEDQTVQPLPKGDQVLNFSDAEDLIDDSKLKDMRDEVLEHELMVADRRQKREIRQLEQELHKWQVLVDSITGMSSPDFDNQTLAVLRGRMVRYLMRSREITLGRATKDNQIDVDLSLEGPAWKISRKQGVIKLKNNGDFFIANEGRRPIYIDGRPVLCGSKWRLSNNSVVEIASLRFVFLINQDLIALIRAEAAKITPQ

effect of a mutation on the interaction | Variant
with no effect | A274T

Variants of: B2
Details: with amol2_human AMOTL2, Q9Y2J4
amol2_human AMOTL2, Q9Y2J4, sequence (Q9Y2J4 whole entry): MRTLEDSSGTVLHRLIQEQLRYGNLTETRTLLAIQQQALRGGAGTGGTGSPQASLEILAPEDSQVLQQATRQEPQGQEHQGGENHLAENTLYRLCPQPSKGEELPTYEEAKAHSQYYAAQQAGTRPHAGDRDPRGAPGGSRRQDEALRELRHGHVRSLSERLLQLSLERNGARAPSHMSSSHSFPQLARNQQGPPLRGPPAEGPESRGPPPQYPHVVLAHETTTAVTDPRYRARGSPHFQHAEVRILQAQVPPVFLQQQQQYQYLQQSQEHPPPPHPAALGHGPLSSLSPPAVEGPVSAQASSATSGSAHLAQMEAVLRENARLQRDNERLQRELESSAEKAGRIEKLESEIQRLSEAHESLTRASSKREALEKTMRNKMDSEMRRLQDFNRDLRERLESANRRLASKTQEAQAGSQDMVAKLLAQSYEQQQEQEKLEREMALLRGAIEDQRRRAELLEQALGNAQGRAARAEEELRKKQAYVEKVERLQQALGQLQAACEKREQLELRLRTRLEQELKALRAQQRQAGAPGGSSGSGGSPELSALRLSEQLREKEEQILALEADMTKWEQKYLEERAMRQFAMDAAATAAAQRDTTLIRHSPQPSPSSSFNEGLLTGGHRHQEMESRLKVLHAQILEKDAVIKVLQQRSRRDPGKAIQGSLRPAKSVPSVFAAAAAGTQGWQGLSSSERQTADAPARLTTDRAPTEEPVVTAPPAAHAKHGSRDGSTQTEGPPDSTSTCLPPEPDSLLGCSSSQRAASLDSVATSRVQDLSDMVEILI

effect of a mutation on the interaction | Variant
with no effect | A274T

Variants of: B3
Details: with tbc16_human TBC1D16, Q8TBP0

effect of a mutation on the interaction | Variant
with no effect | R74Q
with no effect | A115T

Variants of: B4
Details: with nup62_human NUP62, P37198

effect of a mutation on the interaction | Variant
with no effect | A34T

Variants of: B4
Details: with traf1_human TRAF1, Q13077
traf1_human TRAF1, Q13077, sequence (Q13077 whole entry): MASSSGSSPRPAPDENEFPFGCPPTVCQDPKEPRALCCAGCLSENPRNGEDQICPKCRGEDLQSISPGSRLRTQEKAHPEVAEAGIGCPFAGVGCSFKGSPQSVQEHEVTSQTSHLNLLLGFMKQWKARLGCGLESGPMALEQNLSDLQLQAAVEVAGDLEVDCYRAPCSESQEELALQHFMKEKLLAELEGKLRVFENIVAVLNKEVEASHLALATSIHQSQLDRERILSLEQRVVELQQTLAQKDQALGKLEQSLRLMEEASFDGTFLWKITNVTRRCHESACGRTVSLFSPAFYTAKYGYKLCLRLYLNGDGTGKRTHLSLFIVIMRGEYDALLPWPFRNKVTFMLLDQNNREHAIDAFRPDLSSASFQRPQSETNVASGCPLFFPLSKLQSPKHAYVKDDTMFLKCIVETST

effect of a mutation on the interaction | Variant
with no effect | A34T

Variants of: B5
Details: with catz_human CTSZ

effect of a mutation on the interaction | Variant
with no effect | A89V

Variants of: B5
Details: with zn136_human ZNF136, P52737
zn136_human ZNF136, P52737, sequence (P52737 whole entry): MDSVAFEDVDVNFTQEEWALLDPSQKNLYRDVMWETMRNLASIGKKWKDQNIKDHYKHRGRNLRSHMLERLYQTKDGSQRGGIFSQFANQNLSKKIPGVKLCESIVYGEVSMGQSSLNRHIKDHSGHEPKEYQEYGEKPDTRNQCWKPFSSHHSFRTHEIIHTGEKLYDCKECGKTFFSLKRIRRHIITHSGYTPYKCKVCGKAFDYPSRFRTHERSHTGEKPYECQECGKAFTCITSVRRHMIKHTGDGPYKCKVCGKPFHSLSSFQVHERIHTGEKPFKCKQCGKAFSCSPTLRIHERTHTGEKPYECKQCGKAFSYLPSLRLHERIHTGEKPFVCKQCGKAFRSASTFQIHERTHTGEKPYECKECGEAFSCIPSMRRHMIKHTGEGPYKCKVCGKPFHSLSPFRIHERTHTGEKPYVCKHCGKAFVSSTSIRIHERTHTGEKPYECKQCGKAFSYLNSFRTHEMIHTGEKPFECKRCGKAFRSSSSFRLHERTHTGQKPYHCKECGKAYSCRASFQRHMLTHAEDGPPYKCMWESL

effect of a mutation on the interaction | Variant
with no effect | A89V

Variants of: B5
Details: with TSGA10IP

effect of a mutation on the interaction | Variant
with no effect | A89V

Variants of: B5
Details: with kat5_human KAT5, Q92993

effect of a mutation on the interaction | Variant
with no effect | A89V

Variants of: B5
Details: with cd5r1_human CDK5R1, Q15078

effect of a mutation on the interaction | Variant
with no effect | A89V

Variants of: B5
Details: with bmp7_human BMP7, P18075
bmp7_human BMP7, P18075, sequence (P18075 whole entry): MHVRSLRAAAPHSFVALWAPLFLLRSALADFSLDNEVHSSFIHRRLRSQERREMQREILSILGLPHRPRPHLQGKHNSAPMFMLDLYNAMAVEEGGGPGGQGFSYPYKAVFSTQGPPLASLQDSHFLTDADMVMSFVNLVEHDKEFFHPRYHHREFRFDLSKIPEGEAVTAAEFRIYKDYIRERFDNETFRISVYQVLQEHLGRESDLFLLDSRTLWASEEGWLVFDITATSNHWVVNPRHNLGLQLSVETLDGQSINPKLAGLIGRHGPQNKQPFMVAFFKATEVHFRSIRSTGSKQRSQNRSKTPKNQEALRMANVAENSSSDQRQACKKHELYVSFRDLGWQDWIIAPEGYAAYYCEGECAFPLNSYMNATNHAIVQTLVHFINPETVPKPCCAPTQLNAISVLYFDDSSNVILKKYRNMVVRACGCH

effect of a mutation on the interaction | Variant
with no effect | A89V

Variants of: B5
Details: with gtpba_human GTPBP10, A4D1E9
gtpba_human GTPBP10, A4D1E9, sequence (A4D1E9 whole entry): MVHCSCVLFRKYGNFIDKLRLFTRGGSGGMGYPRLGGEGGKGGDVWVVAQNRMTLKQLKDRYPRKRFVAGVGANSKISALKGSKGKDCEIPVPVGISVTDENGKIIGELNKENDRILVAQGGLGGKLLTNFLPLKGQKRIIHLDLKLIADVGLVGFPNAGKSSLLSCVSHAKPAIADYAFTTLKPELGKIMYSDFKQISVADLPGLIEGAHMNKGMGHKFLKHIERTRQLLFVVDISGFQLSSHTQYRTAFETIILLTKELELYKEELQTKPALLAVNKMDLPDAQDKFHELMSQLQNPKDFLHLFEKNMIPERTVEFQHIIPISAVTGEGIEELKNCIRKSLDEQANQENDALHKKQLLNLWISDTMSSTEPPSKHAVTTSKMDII

effect of a mutation on the interaction | Variant
with no effect | A89V

Variants of: B5
Details: with cdkl3_human CDKL3, Q8IVW4
cdkl3_human CDKL3, Q8IVW4, sequence (Q8IVW4 whole entry, looked up): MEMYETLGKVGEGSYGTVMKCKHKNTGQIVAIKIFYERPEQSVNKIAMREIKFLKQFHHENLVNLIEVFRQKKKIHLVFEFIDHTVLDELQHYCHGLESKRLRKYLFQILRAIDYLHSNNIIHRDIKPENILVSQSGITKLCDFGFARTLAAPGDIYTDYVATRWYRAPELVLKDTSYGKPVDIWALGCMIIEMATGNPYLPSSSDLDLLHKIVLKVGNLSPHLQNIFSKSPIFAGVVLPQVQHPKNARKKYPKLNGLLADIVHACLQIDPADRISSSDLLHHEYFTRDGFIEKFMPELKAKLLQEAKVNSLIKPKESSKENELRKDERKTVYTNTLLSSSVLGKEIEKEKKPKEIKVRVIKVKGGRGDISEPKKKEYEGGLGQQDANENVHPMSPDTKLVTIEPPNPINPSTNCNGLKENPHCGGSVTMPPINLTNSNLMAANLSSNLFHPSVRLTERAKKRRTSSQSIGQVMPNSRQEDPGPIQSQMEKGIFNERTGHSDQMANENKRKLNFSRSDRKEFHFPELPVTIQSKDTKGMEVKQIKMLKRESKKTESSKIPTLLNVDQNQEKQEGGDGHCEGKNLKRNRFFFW

effect of a mutation on the interaction | Variant
with no effect | A89V

Variants of: B5
Details: with cu058_human C21orf58, P58505
cu058_human C21orf58, P58505, sequence (P58505 whole entry): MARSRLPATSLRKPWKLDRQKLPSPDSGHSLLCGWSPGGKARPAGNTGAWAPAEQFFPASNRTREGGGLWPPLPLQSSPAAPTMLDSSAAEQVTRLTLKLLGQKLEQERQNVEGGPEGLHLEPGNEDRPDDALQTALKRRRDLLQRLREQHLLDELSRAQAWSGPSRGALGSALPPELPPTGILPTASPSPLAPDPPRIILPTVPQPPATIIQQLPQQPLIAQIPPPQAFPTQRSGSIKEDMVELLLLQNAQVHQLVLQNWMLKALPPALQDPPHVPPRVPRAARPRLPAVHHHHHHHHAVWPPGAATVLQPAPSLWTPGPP

effect of a mutation on the interaction | Variant
with no effect | A89V

Variants of: B5
Details: with zn426_human ZNF426, Q9BUY5

effect of a mutation on the interaction | Variant
with no effect | A89V

Variants of: B5
Details: with snai1_human SNAI1, O95863
snai1_human SNAI1, O95863, sequence (O95863 whole entry): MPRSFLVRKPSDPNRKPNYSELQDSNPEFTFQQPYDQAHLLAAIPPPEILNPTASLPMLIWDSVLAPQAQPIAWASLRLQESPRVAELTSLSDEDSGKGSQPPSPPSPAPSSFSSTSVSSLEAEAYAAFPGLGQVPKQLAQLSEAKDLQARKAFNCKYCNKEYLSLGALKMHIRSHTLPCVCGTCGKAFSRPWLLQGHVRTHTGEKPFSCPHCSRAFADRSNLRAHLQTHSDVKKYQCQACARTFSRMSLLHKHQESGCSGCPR

effect of a mutation on the interaction | Variant
with no effect | A89V

Variants of: B5
Details: with zn329_human ZNF329, Q86UD4
zn329_human ZNF329, Q86UD4, sequence (Q86UD4 whole entry): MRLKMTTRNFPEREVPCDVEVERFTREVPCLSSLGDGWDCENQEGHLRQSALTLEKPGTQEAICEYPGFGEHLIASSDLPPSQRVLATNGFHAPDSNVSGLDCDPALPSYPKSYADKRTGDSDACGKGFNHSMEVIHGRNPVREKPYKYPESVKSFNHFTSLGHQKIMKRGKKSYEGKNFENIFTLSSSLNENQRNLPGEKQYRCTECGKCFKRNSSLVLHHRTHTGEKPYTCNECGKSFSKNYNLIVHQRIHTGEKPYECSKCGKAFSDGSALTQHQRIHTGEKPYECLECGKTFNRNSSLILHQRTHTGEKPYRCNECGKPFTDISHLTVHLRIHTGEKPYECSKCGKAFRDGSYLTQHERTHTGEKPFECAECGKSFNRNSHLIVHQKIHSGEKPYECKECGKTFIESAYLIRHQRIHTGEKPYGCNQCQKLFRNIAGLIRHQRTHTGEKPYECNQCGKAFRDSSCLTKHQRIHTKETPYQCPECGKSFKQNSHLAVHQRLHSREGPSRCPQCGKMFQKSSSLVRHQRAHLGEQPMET

effect of a mutation on the interaction | Variant
with no effect | A89V

Variants of: B6
Details: with chm1b_human CHMP1B

effect of a mutation on the interaction | Variant
with no effect | R255H
with no effect | Q155H

Variants of: B7
Details: with rita1_human RITA1, Q96K30

effect of a mutation on the interaction | Variant
with no effect | P332T
with no effect | A297G
with no effect | Q474H

Variants of: B8
Details: with caco2_human CALCOCO2, Q13137

effect of a mutation on the interaction | Variant
with no effect | R196Q
